{"source": "patent US8530235B2", "about": "“Medium that supports culture of an oocyte and modulation of granulosa cell apoptosis” (Adelaide Research & Innovation Pty Ltd., priority 2005, dated 2013)", "system": "cumulus-oocyte complexes", "assay": "Study IV: oocyte developmental competence after IVM, IVF and embryo culture", "assay_type": "cell-based, Bovine", "details": "for blastocyst yields with exogenous factor / effect on cleavage rate: Experiments 3 & 4; for blastocyst yields with exogenous factor: 175 ng/ml GDF9 or 10% v/v BMP15; for effect on cleavage rate: 4 μM SB-431542, 175 ng/ml GDF9, 10% v/v BMP15, 10% v/v 293H", "method": "Unless otherwise specified, all chemicals and reagents were purchased from Sigma (St Louis, Mo.). Bovine ovaries were collected from local abattoirs and transported to the laboratory in warm saline (30-35° C.). COCs were aspirated from antral follicles (3 to 5 mm diameter) using an 18-gauge needle and a 10-ml syringe containing ˜2 ml aspiration medium (Hepes-buffered. Tissue Cultured Medium-199; TCM-199. ICN Biochemicals, Irvine, Calif., USA) supplemented with 50 μg/ml kanamycin, 0.5 mM sodium pyruvate, 50 μg/ml heparin and 4 mg/ml fatty acid-free bovine serum albumin (FAF-BSA; ICPbio Ltd, Aukland, NZ). Intact COCs with compact cumulus vestments>˜5 cell layers and evenly pigmented cytoplasm were selected under a dissecting microscope and washed twice in Hepes-buffered TCM-199 and once in Hepes-buffered TCM-199 supplemented with 10% fetal calf serim (FCS) (Invitrogen, Carlsbad, Calif.). The basic medium for oocyte maturation was Bovine VitroMat (Cook Australia, Eight Mile Plains, Qld, Australia), a medium based on the ionic composition of bovine follicular fluid. […] Complexes were cultured in pre-equilibrated 300 ? l drops overlaid with mineral oil and incubated at 39° C. with 5% CO2 in humidified air for 24 hour. […]\nRecombinant mouse GDF9 and recombinant ovine BMP15 were produced and partially purified in-house as previously described using transfected 293 human embryonic kidney cell lines (293H) originally donated by O. Ritvos (University of Helsinki). Control conditioned medium (hereafter designated ‘293H’) was produced from untransfected 293H cells and subjected to the same chromatography procedures as GDF9 and BMP15 conditioned media.\nConsequently, SB-431542 potently antagonizes the ALK 4/5 ligands; TGF-β1, the activins and GDF9, without affecting BMP signalling (Inman et al., 2002; Gilchrist et al., 2006). […] Follistatin-288 was generously donated by S. Shimasaki (University of California San Diego, USA) and we have previously shown that this binding protein antagonizes the bioactivities of native OSFs and recombinant BMP15 in CCs.\nIn vitro production of embryos was undertaken using defined, serum-free media (Bovine Vitro series of media, Cook Australia). Frozen semen from a single bull of proven fertility was used in all experiments. Briefly, thawed semen was layered over a discontinuous (45%: 90%) Percoll gradient (Amersham Bioscience) and centrifuged (RT) for 20-25 mins at 700 g. The supernatant was removed and the sperm pellet was washed with 500 μl Bovine VitroWash (Cook Australia) and centrifuged for a further 5 minutes at 200 g. Spermatozoa were resuspended with IVF medium (Bovine VitroFert, Cook Australia), then added to the fertilization media drops (Bovine VitroFert, supplemented with 0.01 mM heparin, 0.2 mM penicillamine and 0.1 mM hypotaurine) at a final concentration of 1×106 spermatozoa/ml. COCs were inseminated at a density of 10 μl of IVF medium per COC for 24 h, at 39° C. in 6% CO2 in humidified air.\nCCs were removed by gentle pipetting 23-24 h post insemination and five presumptive zygotes were transferred into 20 μl drops of pre-equilibrated Cook Bovine VitroCleave medium (Cook Australia) and cultured under mineral oil at 38.5° C. in 7% O2, 6% CO2, balance N2, for five days (day 1 to day 5).\nOn Day 5, embryos were transferred in groups of 5-6 to 20 μl drops of pre-equilibrated Bovine VitroBlast (Cook Australia) at 38.5° C. overlaid with mineral oil and cultured to Day 8. Embryos were assessed for quality at Day 8 according to the definitions presented in the Manual of the International Embryo Transfer Society (Stringfellow, 1998) and were performed independently and blinded by an experienced bovine embryologist.\nCell counts were performed using a modified version of the technique described by (Fouladi-Nashta et al., 2005). […]", "data": [{"molecule": "GDF-9: Recombinant mouse GDF-9 produced in-house in transfected 293H cells, partially purified by HIC (protein, UniProt Q07105 307-441, looked up) Growth/differentiation factor …: GQKAIRSEAKGPLLTASFNLSEYFKQFLFPQNECELHDFRLSFSQLKWDNWIVAPHRYNPRYCKGDCPRAVRHRYGSPVHTMVQNIIYEKLDPSVPRPSCVPGKYSPLSVLTIEPDGSIAYKEYEDMIATRCTCR", "values": [{"measurement": "blastocyst yield", "setting": "Experiment 2, 175 ng/ml GDF9, with or without 10% v/v BMP15", "result": "increased (P<0.05) blastocyst yield compared to 293H-treated COCs, but not compared to COCs cultured alone"}, {"measurement": "blastocyst yields with exogenous factor", "result": "increased blastocyst yields"}, {"measurement": "effect on cleavage rate", "result": "did not significantly alter cleavage rates"}]}, {"molecule": "BMP-15: Recombinant ovine BMP-15 produced in-house in transfected 293H cells, partially purified by hydrophobic interaction chromatography; dosed as % v/v (protein, UniProt Q9MZE2 269-393, looked up) Bone morphogenetic protein 15: QAGSIASEVPGPSREHDGPESNQCSLHPFQVSFQQLGWDHWIIAPHLYTPNYCKGVCPRVLHYGLNSPNHAIIQNLVSELVDQNVPQPSCVPYKYVPISILLIEANGSILYKEYEGMIAQSCTCR", "values": [{"measurement": "enhancement of development to the blastocyst stage compared to 293H-treated COCs", "setting": "10% v/v BMP15 during IVM", "result": 30, "unit": "%"}, {"measurement": "enhancement of development to the blastocyst stage compared to control COCs", "setting": "10% v/v BMP15 during IVM", "result": 16, "unit": "%"}, {"measurement": "blastocyst yields with exogenous factor", "result": "increased blastocyst yields"}, {"measurement": "effect on cleavage rate", "result": "did not significantly alter cleavage rates"}]}]}
